Test results as given in IntAct's records for PubMed 19037259.

Assays:
fig4_yeast FIG4 = fig4_yeast FIG4 (UniProt P42837)
vac14_yeast VAC14 = vac14_yeast VAC14 (UniProt Q06708)
Chain of UniProt Q06708 (Q06708 whole entry): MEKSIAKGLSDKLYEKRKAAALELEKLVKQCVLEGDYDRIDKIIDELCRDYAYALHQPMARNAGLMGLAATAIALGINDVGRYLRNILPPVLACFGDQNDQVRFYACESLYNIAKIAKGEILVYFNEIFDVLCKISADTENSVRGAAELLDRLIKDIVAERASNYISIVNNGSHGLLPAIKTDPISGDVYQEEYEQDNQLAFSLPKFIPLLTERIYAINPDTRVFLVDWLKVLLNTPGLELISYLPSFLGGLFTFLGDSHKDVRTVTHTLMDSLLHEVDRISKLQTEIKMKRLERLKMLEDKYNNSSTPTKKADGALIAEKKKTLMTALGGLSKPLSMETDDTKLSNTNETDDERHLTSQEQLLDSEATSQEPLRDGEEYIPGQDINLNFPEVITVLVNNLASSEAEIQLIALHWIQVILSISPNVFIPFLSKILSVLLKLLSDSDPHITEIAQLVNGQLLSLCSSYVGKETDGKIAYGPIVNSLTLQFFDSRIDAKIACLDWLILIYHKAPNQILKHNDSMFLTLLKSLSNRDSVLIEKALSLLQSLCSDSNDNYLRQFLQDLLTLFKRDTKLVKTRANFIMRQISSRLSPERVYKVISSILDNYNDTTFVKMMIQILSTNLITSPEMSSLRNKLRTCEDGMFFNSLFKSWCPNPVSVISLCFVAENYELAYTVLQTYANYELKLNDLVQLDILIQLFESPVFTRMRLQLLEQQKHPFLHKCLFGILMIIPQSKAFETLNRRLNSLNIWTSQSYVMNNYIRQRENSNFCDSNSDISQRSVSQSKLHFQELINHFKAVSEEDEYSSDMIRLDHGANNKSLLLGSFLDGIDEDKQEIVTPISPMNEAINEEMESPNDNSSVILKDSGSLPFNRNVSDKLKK

Chain of UniProt P42837 (P42837 whole entry): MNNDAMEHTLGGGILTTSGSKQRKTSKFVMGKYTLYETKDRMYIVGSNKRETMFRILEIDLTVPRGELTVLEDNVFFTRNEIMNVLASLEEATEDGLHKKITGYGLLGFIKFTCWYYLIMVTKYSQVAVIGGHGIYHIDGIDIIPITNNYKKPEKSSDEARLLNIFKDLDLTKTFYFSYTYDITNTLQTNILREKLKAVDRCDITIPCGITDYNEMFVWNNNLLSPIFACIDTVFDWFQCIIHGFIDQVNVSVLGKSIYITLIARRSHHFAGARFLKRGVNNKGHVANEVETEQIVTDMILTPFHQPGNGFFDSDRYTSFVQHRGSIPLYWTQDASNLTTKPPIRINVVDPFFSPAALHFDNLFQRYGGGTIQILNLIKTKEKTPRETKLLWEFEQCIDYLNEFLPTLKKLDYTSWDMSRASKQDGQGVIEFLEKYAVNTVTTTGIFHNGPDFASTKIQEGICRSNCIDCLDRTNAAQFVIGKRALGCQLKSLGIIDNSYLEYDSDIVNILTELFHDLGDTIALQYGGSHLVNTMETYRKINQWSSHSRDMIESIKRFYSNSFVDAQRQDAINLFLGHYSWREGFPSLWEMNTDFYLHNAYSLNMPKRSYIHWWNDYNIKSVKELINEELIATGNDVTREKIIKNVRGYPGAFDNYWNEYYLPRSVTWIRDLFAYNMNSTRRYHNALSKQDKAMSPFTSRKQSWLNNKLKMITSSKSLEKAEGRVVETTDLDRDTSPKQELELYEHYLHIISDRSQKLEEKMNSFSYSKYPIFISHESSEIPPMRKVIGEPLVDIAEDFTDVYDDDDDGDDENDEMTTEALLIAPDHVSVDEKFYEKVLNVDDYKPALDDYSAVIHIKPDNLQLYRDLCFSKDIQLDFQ

- effect of a mutation on the interaction (fig4_yeast FIG4): disrupting interaction
- effect of a mutation on the interaction (vac14_yeast VAC14): disrupting interaction
Substance: 1-phosphatidylinositol 3-phosphate 5-kinase FAB1 (Saccharomyces cerevisiae), P34756 G864E
